Assay results taken from publication PMC10663500, “High-throughput analysis system of interaction kinetics for data-driven antibody design” (Scientific Reports, 2023).
Changes are numbered by the printed parent chain.

B1: toripalimab Fab L.V99A (Fab, V domains shown)
VH: QGQLVQSGAEVKKPGASVKVSCKASGYTFTDYEMHWVRQAPIHGLEWIGVIESETGGTAYNQKFKGRVTITADKSTSTAYMELSSLRSEDTAVYYCAREGITTVATTYYWYFDVWGQGTTVTVSS
VL: DVVMTQSPLSLPVTLGQPASISCRSSQSIVHSNGNTYLEWYLQKPGQSPQLLIYKVSNRFSGVPDRFSGSGSGTDFTLKISRVEAEDVGVYYCFQGSHAPLTFGQGTKLEIK
notes: as the heavy chain of Sm3; light chain of Sm3 with this change; numbers count from the chain's first residue; source: Brevibacillus, culture supernatant (ammonium sulfate precipitate); not shown: 6xHis, C-terminal, kept; 6xHN, C-terminal, kept
B2: toripalimab Fab L.V99Q (Fab, V domains shown)
VH: B1 VH
VL: B1 VL with A99Q
notes: as for B1
B3: toripalimab Fab L.V99E (Fab, V domains shown)
VH: B1 VH
VL: B1 VL with A99E
notes: as for B1
B4: toripalimab Fab L.P100E (Fab, V domains shown)
VH: B1 VH
VL: B1 VL with A99V, P100E
notes: as for B1
B5: toripalimab Fab L.V99N (Fab, V domains shown)
VH: B1 VH
VL: B1 VL with A99N
notes: as for B1
B6: toripalimab Fab L.P100K (Fab, V domains shown)
VH: B1 VH
VL: B1 VL with A99V, P100K
notes: as for B1
B7: toripalimab Fab L.V99S (Fab, V domains shown)
VH: B1 VH
VL: B1 VL with A99S
notes: as for B1
B8: toripalimab Fab L.V99K (Fab, V domains shown)
VH: B1 VH
VL: B1 VL with A99K
notes: as for B1
B9: toripalimab Fab L.V99G (Fab, V domains shown)
VH: B1 VH
VL: B1 VL with A99G
notes: as for B1
B10: toripalimab Fab L.V99W (Fab, V domains shown)
VH: B1 VH
VL: B1 VL with A99W
notes: as for B1
B11: toripalimab Fab L.V99H (Fab, V domains shown)
VH: B1 VH
VL: B1 VL with A99H
notes: as for B1
B12: toripalimab Fab L.P100I (Fab, V domains shown)
VH: B1 VH
VL: B1 VL with A99V, P100I
notes: as for B1
B13: toripalimab Fab L.V99P (Fab, V domains shown)
VH: B1 VH
VL: B1 VL with A99P
notes: as for B1

Target: T1, human programmed cell death protein 1 (hPD-1) C93S (aa 24-167) (Homo sapiens, UniProt Q15116, C93S)
T1 construct: made as a fusion with a TEV site and human Fc; the Fc was cut off with TEV protease; source: Expi293F, purified (Protein A, TEV cleavage of Fc, SEC; monomer fractions); not shown: Fc (human), C-terminal, cleaved
T1 sequence (Q15116 24-167 C93S): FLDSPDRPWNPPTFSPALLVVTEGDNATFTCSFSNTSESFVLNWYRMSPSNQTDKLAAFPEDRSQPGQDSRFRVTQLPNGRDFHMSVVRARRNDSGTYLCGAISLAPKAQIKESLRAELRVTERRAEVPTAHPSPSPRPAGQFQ
Assay: SPR; Carterra LSA; Fab from the ammonium sulfate precipitate of the culture supernatant immobilised on a NiHC200M chip; hPD-1 (1-1024 nM) or mPD-1-Fc (4-1024 nM) as analyte, fourfold dilution series, no regeneration; HBS-EP pH 7.4, 25 °C; medians over the spots of a construct, KD = koff/kon
Conditions: one partner purified
Method in brief: (§1)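 Human PD-1 (1–1024 nM) or mouse PD-1-Fc (4–1024 nM), in fourfold series, was flowed without regeneration over Fabs captured in duplicate on a NiHC200M chip (Carterra LSA, 25 °C), using 10 min association and 5 min dissociation. The Fabs had been recovered from Brevibacillus culture supernatants by ammonium sulfate precipitation and redissolved in HBS-EP. For binding constants, KD was defined as koff/kon from per-construct medians, with rates fitted by the kdka model under slow- or fast-dissociation settings (best fit) and unconfirmed binders set to kon 10^3 […] and koff 10^−2 s^−1.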

Compared with B1, B2 is 5-fold higher in Kd: 1.61 nM for the first, 8.06 nM for the second.

B3 and B4 cannot be ordered by Kd: under 1.03 nM for the first, under 0.554 nM for the second.

Compared with B5, B6 is 2.6-fold higher in Kd: 3.03 nM for the first, 7.78 nM for the second.

Compared with B7, B8 is higher in Kd: under 1.16 nM for the first, 30.7 nM for the second. The first binds more tightly here.

Compared with B9, B10 is 26-fold higher in Kd: 1.75 nM for the first, 45.3 nM for the second.

Compared with B11, B12 is 1.9-fold lower in Kd: 23.1 nM for the first, 12.3 nM for the second. The second binds more tightly here.

Work on B13 yielded a Kd of 19.8 nM.

Compared with B1, B2 is 1.8-fold higher in koff: 3.6e-05 s⁻¹ for the first, 6.39e-05 s⁻¹ for the second.

B3 and B4 cannot be ordered by koff: under 1e-05 s⁻¹ for the first, under 1e-05 s⁻¹ for the second.

B5 and B6 are within 1.5-fold of each other in koff: 5.61e-05 s⁻¹ for the first, 5.19e-05 s⁻¹ for the second.

Going from B7 to B8, the koff rises from under 1e-05 s⁻¹ to 0.000131 s⁻¹.

First: B9
Second: B10
The koff of the first is 36-fold lower: 1.44e-05 s⁻¹ for the first, 0.000522 s⁻¹ for the second.

Compared with B11, B12 is 2.7-fold lower in koff: 0.000239 s⁻¹ for the first, 8.88e-05 s⁻¹ for the second.

Work on B13 yielded a koff of 0.000192 s⁻¹.

Going from B1 to B2, the kon falls from 22300 M⁻¹ s⁻¹ to 7930 M⁻¹ s⁻¹ (2.8-fold).

Compared with B3, B4 is 1.9-fold higher in kon: 9690 M⁻¹ s⁻¹ for the first, 18100 M⁻¹ s⁻¹ for the second.

Compared with B5, B6 is 2.8-fold lower in kon: 18500 M⁻¹ s⁻¹ for the first, 6670 M⁻¹ s⁻¹ for the second.

First: B7
Second: B8
The kon of the first is 2-fold higher: 8660 M⁻¹ s⁻¹ for the first, 4260 M⁻¹ s⁻¹ for the second.

B9 and B10 are within 1.5-fold of each other in kon: 8230 M⁻¹ s⁻¹ for the first, 11500 M⁻¹ s⁻¹ for the second.

B11 and B12 are within 1.5-fold of each other in kon: 10400 M⁻¹ s⁻¹ for the first, 7200 M⁻¹ s⁻¹ for the second.

Binder B13 has a kon of 9660 M⁻¹ s⁻¹.

Target: T2, mouse programmed cell death protein 1 Fc fusion protein (mPD-1-Fc), mPD-1 C60S (aa 25-167) (Mus musculus, UniProt Q02242, stabilised)
T2 construct: not cleaved; source: Expi293F, purified (Protein A, SEC; dimeric fraction); not shown: Fc (human), C-terminal, kept
Assay: as above
Conditions: one partner purified
Method in brief: as §1

First: B1
Second: B2
The Kd of the first is 29-fold lower: 15.2 nM for the first, 445 nM for the second.

First: B3
Second: B4
The Kd of the first is 10-fold higher: 201 nM for the first, 19.8 nM for the second. The second binds more tightly here.

First: B5
Second: B6
The Kd of the first is 2.8-fold higher: 169 nM for the first, 60.6 nM for the second.

Compared with B7, B8 is 63-fold higher in Kd: 4.51 nM for the first, 285 nM for the second. The first binds more tightly here.

First: B9
Second: B10
The Kd of the first is lower: under 0.848 nM for the first, 254 nM for the second.

Going from B11 to B12, the Kd falls from 334 nM to 23.2 nM (14-fold). The second binds more tightly here.

Work on B13 yielded a Kd of 24.7 nM.

Compared with B1, B2 is 47-fold higher in koff: 0.000353 s⁻¹ for the first, 0.0167 s⁻¹ for the second.

Going from B3 to B4, the koff falls from 0.00742 s⁻¹ to 0.000491 s⁻¹ (15-fold).

Going from B5 to B6, the koff falls from 0.00665 s⁻¹ to 0.000824 s⁻¹ (8.1-fold).

First: B7
Second: B8
The koff of the first is 63-fold lower: 6.95e-05 s⁻¹ for the first, 0.00439 s⁻¹ for the second.

Going from B9 to B10, the koff rises from under 1e-05 s⁻¹ to 0.0065 s⁻¹.

First: B11
Second: B12
The koff of the first is 31-fold higher: 0.00991 s⁻¹ for the first, 0.000324 s⁻¹ for the second.

Work on B13 yielded a koff of 0.0007 s⁻¹.

First: B1
Second: B2
The kon of the first is 1.6-fold lower: 23300 M⁻¹ s⁻¹ for the first, 37600 M⁻¹ s⁻¹ for the second.

B3 and B4 are within 1.5-fold of each other in kon: 36800 M⁻¹ s⁻¹ for the first, 24800 M⁻¹ s⁻¹ for the second.

Compared with B5, B6 is 2.9-fold lower in kon: 39400 M⁻¹ s⁻¹ for the first, 13600 M⁻¹ s⁻¹ for the second.

B7 and B8 are the same in kon: 15400 M⁻¹ s⁻¹ for the first, 15400 M⁻¹ s⁻¹ for the second.

First: B9
Second: B10
The kon of the first is 2.2-fold lower: 11800 M⁻¹ s⁻¹ for the first, 25600 M⁻¹ s⁻¹ for the second.

First: B11
Second: B12
The kon of the first is 2.1-fold higher: 29600 M⁻¹ s⁻¹ for the first, 13900 M⁻¹ s⁻¹ for the second.

For B13, the kon was 28300 M⁻¹ s⁻¹.
